Where two headings read alike, the source gives them in different places.

For data set [1], the target named is T1, GltTk (Thermococcus kodakarensis, UniProt Q5JID0).
T1 construct: gene TK0986; C-terminally His8-tagged (pBAD24-GltTk-His8), expressed in E. coli MC1061, purified in decylmaltoside-type detergent (DM) or reconstituted in proteoliposomes; homotrimer
The experiment in a line: isothermal titration calorimetry. The class given is binding. An excerpt: (§1) isothermal titration calorimetry on GltTk

The target of data set [2] is T1, GltTk. Briefly: isothermal titration calorimetry. The conditions noted are these: 300 mM NaCl, 100 mM KCl, pH 8.0, 25 °C, 0.15% DM; Na+-coupled binding; cited from earlier work.
Source text: as §1
(In general: ITC needs no label: the signal is the heat of the interaction.)

Data set [3] deals with glutamate transporter homolog GltTk from Thermococcus kodakarensis (Thermococcus kodakarensis) (UniProt Q5JID0). The experiment in a line: crystal structure; GltTk with D-aspartate, 2.8 Å; hanging drop vapour diffusion at 5°C, 300 mM NaCl, 300 µM D-aspartate, protein 7 mg/ml in 10 mM Hepes KOH pH 8.0, 100 mM KCl, 0.15% DM; outward-oriented occluded state.
Substrate in data set [4]: N[C@@H](CC(=O)O)C(=O)O
The experiment in a line: purified protein. The note with it: 100 mM NaCl outside, pH 7.5, 3 µM valinomycin, labelled compound.

Substrate in data set [5]: N[C@H](CC(=O)O)C(=O)O
The experiment in a line: purified protein. The conditions noted are these: 100 mM NaCl outside, pH 7.5, 3 µM valinomycin, labelled compound.

As a reminder, the Kd is the equilibrium constant for the complex coming apart. The molecule `N[C@H](CC(=O)O)C(=O)O` [D-aspartate] yielded a Kd on GltTk [1] of 470 ± 170 nM.
`N[C@@H](CC(=O)O)C(=O)O` [L-aspartate]: the Kd on GltTk [2] is 120 ± 40 nM.
Broadly, the stoichiometry N is a count of units in the complex or per binding partner. Molecule “glutamate transporter homolog GltTk from Thermococcus kodakarensis (from UniProt Q5JID0 1-430) (natural protein)” came in with a stoichiometry N in data set [3] of 3.

B1: GltTk (Thermococcus kodakarensis KOD1) (protein)
chain: MGKSLLRRYLDYPVLWKILWGLVLGAVFGLIAGHFGYAGAVKTYIKPFGDLFVRLLKMLVMPIVLASLVVGAASISPARLGRVGVKIVVYYLATSAMAVFFGLIVGRLFNVGANVNLGSGTGKAIEAQPPSLVQTLLNIVPTNPFASLAKGEVLPVIFFAIILGIAITYLMNRNEERVRKSAETLLRVFDGLAEAMYLIVGGVMQYAPIGVFALIAYVMAEQGVRVVGPLAKVVGAVYTGLFLQIVITYFILLKVFGIDPIKFIRKAKDAMITAFVTRSSSGTLPVTMRVAEEEMGVDKGIFSFTLPLGATINMDGTALYQGVTVLFVANAIGHPLTLGQQLVVVLTAVLASIGTAGVPGAGAIMLAMVLQSVGLDLTPGSPVALAYAMILGIDAILDMGRTMVNVTGDLAGTVIVAKTEKELDESKWIS
A word on the Km: it is the substrate concentration at which the rate is half of its maximum. Take B1: the Km in “purified protein [4]” is 0.75 ± 0.17 µM; in “purified protein [5]”, 1.1 ± 0.11 µM.

Values taken from paper PMC6482001 (eLife, 2019).
